Measurements published in publication PMC4652764, “The La-related protein 1-specific domain repurposes HEAT-like repeats to directly bind a 5′TOP sequence”.

Columns and labels:
Details in all cases: protein: recombinant; tags: His6-MBP removed by TEV; glycine linker remnant; label: 5'-32P (EMSA, probing)
DM15 R840E = DM15 R840E (human, UniProt Q6PKG0 873-1023, R917E); test: EMSA; up to 30 uM protein; EMSA: 20 mM Tris-HCl pH 8, 150 mM NaCl, 10% glycerol, 1 mM DTT, 0.5 ug tRNA, 1 ug BSA, <2 nM RNA, 30 min on ice, native 0.5x TBE gel at 4 C
DM15 Y883A = DM15 Y883A (human, UniProt Q6PKG0 873-1023, Y960A); test: as above
DM15 GQ908-909AA = DM15 GQ908-909AA (human, UniProt Q6PKG0 873-1023, G985A;Q986A); test: EMSA; up to 150 uM; two-state shift like WT, more protein needed for maximum shift; EMSA: 20 mM Tris-HCl pH 8, 150 mM NaCl, 10% glycerol, 1 mM DTT, 0.5 ug tRNA, 1 ug BSA, <2 nM RNA, 30 min on ice, native 0.5x TBE gel at 4 C

CCUCUUUUCCGUGGCGCCUC (ssRNA) [RPS6-20mer]: no binding (DM15 R840E); no binding (DM15 Y883A); binds (DM15 GQ908-909AA).
